Test results published in US20080175829A1, “METHOD FOR INDUCING NEURAL DIFFERENTIATION” (priority 2004, published 2008).

How the values were obtained:
[1] = system: size-sieved stem cells (SSCs) derived from human bone marrow; assay: Morphology of SSCs (phase contrast), neuronal-like transformation; format: cell-based; settings: for morphology of neurites/processes of SSCs: ITS medium, 7 days, GDNF 50 ng/ml, PACAP 20 ng/ml, dbcAMP 0.1 mM, compared to ITS medium alone
Experimental: SSCs were isolated from human bone marrow as described previously (Hung et al. (2002)). In brief, human bone marrow was aspirated from the iliac crest of normal donors, and then washed twice with phosphate-buffered saline (PBS). The cells were loaded into 1.073 g/ml Percoll solution (Sigma®), and then centrifuged at 900 g for 30 min. The mononuclear cells (MNCs) were collected from the interface, and plated at the density of 1×10^6 MNCs/cm^2 onto a 10-cm plastic culture dish comprised of an inserted sieve with 3-μm pores (Transwell System, Corning®). The cells were cultured in Dulbecco's modified Eagle's medium-low glucose (DMFM-LG) containing 10% fetal bovine serum (FBS), 100 U/ml penicillin, […] streptomycin, and 0.25 μg/ml amphotericin B (serum-containing medium). […] However, the cells that passed through the sieve were small, polygonal and had less renewal. SSCs were then harvested with 0.25% trypsin and 1 mM EDTA, and replated on 10-cm culture petri dishes. When SSCs were grown in serum containing medium to 80% confluence, the cells were replated onto 35-mm culture petri dishes at the density of 1×10^5 cells/dish for Western Blotting, or onto 8-well chambers at the density of 1×10^4 cells/well for immunofluorescence.
[…] ITS medium consisted of 56% DMEM-LG (Life Biotech®), 40% MCDB-201 medium (Sigma®), and 1×ITS medium supplement (Sigma®) contained 1 mg/ml insulin, 0.55 mg/ml human transferrin, 0.5 μg/ml sodium selenite, 10 nM dexamethasone (Sigma®), and 10 μM ascorbic acid (Sigma®)). […] However, when SSCs were cultured in serum free medium with ITS supplement, these cells adhered well onto cultured plates and extended their processes. Therefore, treatments were performed in ITS medium.

[2] = system: size-sieved stem cells (SSCs) derived from human bone marrow; assay: Western Blotting of neuron-specific markers (NF-L, NF-H) and α-tubulin in SSCs; format: cell-based; settings: 7 days in ITS medium; for expression of NF-L protein in SSCs: compared to ITS medium alone
Experimental: This is to study the effects of GDNF, PACAP and dbcAMP on neuronal differentiation of SSC in ITS medium. The levels of neuron-specific markers (NF-L and NF-H) in the SSCs were examined by Western Blotting. The cells were replated at the density of 1×10^5 cells per 35 mm petri dish and cultured for 7 days in ITS medium with GDNF, PACAP or dbcAMP at the distinct concentrations. Cells were harvested and gently homogenized on ice using PBS containing 1% SDS, 1 mM phenylmethyl-sulfonylfluoride (PMSF), 1 mM EDTA, […], […], and […]. Protein concentrations were determined using a Bio-Rad® DC kit. Ten μg of total protein was loaded onto 7.5% SDS-PAGE, and transferred to a nitrocellulous membrane. NF-L (70 kDa) and NF-H (200 kDa) were identified by incubating the membrane with anti-NF antibodies (Chemicon®) overnight at 4° C., followed by horseradish peroxidase-conjugated secondary antibodies and enhanced chemiluminescence solution (NEN LifeScience®).

[3] = system: size-sieved stem cells (SSCs) derived from human bone marrow; assay: Immunofluorescence staining for α-internexin in SSCs; format: cell-based; settings: 7 days in ITS medium; GDNF 50 ng/ml, PACAP 20 ng/ml, dbcAMP 0.1 mM
Experimental: Immunofluorescence staining for another neuronal intermediate filament protein, α-internexin (FIG. 5), was performed using antibodies against α-internexin (1:200; Chemicon®).

[4] = system: size-sieved stem cells (SSCs) derived from human bone marrow; assay: Immunofluorescence for synapsin-1 in SSCs; format: cell-based; settings: 7 days in ITS medium; 50 ng/ml GDNF or 20 nM PACAP
Experimental: To detect the morphological change of the SSCs that had been treated with 50 ng/ml GDNF or 20 nM PACAP in ITS medium for 7 days, the SSCs were fixed in PBS-containing 4% paraformaldehyde for 10 minutes. Examination of immunofluorescence for synapsin-1, a synapse vesicle protein, was performed by incubating SSCs with anti-synapsin-1 antibodies (1:200; BD Biosciences®) in PBS-containing 0.1% Triton X-100 and 5% horse serum overnight at 4° C., followed by biotinylated secondary antibodies (1:200; Vector®) and FITC-avidin (1:200; Vector®).

[5] = system: rats with spinal cord injury (SCI); settings: intraspinal injection; cited from earlier work

Molecule	morphology of neurites/processes of SSCs [1]	level of α-tubulin in SSCs [2]	expression of NF-L protein in SSCs [2]	process branching/elongation of SSCs (α-internexin staining) [3]	response of SSCs in DMEM-LG medium without serum ([1]; DMEM-LG medium without serum (no ITS supplement))	NF-H levels in SSCs [2]	processes of synapsin-1 positive cells [4]	hindlimb recovery [5]
CCCC(=O)Nc1ncnc2c1ncn2[C@@H]1O[C@@H]2COP(=O)(O)O[C@H]2[C@H]1OC(=O)CCC [dbcAMP, dibutyryl cAMP, reference compound]	induced highly branched, elongated, and delicate processes	increased	increased	more extensive branched, elongated processes				
GDNF: glial cell line-derived neurotrophic factor, a potent survival factor for many CNS neuronal cell populations (R&D) (protein, UniProt P39905 78-211, looked up) Glial cell line-derived …: SPDKQMAVLPRRERNRQAAAANPENSRGKGRRGQRGKNRGCVLTAIHLNVTDLGLGYETKEELIFRYCSGSCDAAETTYDKILKNLSRNRRLVSDKVGQACCRPIAFDDDLSFLDDNLVYHILRKHSAKRCGCI	further improved the extension of neurites	induces	stimulatory effect	could induce process branching of SSCs to some extent	respond poorly	less effect	extended processes with branching	improved hindlimb recovery
